From US20140087995A1 (published 2014) come the findings set out here.

Numbered stars: 1 amine (or outer) side, 2 acyl side, 3 side chain; on linkers, the order of the positions; unused ones are H or OH. Bridge positions count the residues as written; N and C are the ends. Side chains are listed from the residue outwards. Ends that are not written are not given here. * marks the point of attachment. C20 diacid = O=C(O)CCCCCCCCCCCCCCCCCCC(=O)*; γGlu = O=C(O)[C@H](CCC(=O)[*:2])N[*:1]

T1: human amylin receptor (Amylin 3(a) receptor: human calcitonin receptor co-expressed with RAMP-3) (human, UniProt P30988 25-474; O60896 24-148, limits assumed)
T1 construct: whole, on cells; Used as cell membranes prepared from the Amylin 3(a)/CRE-luc BHK cells (Assay V); the complex is called the human amylin receptor; also called hAmylin-R; hAmylinR
T1 sequence (looked up) 1: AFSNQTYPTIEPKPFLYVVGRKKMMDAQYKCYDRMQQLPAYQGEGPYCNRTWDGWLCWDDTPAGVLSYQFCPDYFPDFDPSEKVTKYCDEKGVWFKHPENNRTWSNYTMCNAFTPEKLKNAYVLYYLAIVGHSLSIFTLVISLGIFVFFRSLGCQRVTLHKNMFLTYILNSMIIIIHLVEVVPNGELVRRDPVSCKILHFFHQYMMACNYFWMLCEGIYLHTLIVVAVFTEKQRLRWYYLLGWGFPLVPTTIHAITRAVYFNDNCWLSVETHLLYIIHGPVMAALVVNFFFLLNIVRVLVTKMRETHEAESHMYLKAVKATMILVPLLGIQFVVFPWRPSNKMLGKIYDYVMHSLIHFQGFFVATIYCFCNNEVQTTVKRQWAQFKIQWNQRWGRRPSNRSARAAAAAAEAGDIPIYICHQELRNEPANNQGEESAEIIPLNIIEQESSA
T1 sequence (looked up) 2: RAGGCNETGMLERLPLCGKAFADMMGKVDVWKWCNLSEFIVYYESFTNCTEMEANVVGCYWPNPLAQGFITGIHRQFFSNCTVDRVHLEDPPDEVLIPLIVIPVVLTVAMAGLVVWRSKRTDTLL

B1: N^ε1-[(4S)-4-carboxy-4-[[(4S)-4-carboxy-4-(19-carboxynonadecanoylamino)butanoyl]amino]butanoyl]-[Glu14,Arg17,Pro21,Pro27,His34,Glu35]-h-amylin (peptide)
peptide: K([γGlu-γGlu-C20 diacid])CNTATCATQRLAEFLRHSSPNFGAIPSSTNVGHETY-NH2
modifications: disulfide 2-7; N-terminus assumed
SMILES: CC[C@H](C)[C@H](NC(=O)[C@H](C)NC(=O)CNC(=O)[C@H](Cc1ccccc1)NC(=O)[C@H](CC(N)=O)NC(=O)[C@@H]1CCCN1C(=O)[C@H](CO)NC(=O)[C@H](CO)NC(=O)[C@H](Cc1c[nH]cn1)NC(=O)[C@H](CCCNC(=N)N)NC(=O)[C@H](CC(C)C)NC(=O)[C@H](Cc1ccccc1)NC(=O)[C@H](CCC(=O)O)NC(=O)[C@H](C)NC(=O)[C@H](CC(C)C)NC(=O)[C@H](CCCNC(=N)N)NC(=O)[C@H](CCC(N)=O)NC(=O)[C@@H](NC(=O)[C@H](C)NC(=O)[C@@H]1CSSC[C@H](NC(=O)[C@@H](N)CCCCNC(=O)CC[C@H](NC(=O)CC[C@H](NC(=O)CCCCCCCCCCCCCCCCCCC(=O)O)C(=O)O)C(=O)O)C(=O)N[C@@H](CC(N)=O)C(=O)N[C@@H]([C@@H](C)O)C(=O)N[C@@H](C)C(=O)N[C@@H]([C@@H](C)O)C(=O)N1)[C@@H](C)O)C(=O)N1CCC[C@H]1C(=O)N[C@@H](CO)C(=O)N[C@@H](CO)C(=O)N[C@H](C(=O)N[C@@H](CC(N)=O)C(=O)N[C@H](C(=O)NCC(=O)N[C@@H](Cc1c[nH]cn1)C(=O)N[C@@H](CCC(=O)O)C(=O)N[C@H](C(=O)N[C@@H](Cc1ccc(O)cc1)C(N)=O)[C@@H](C)O)C(C)C)[C@@H](C)O
notes: modifications are with respect to human amylin
B2: N^ε1-[(4S)-4-carboxy-4-[[(4S)-4-carboxy-4-(19-carboxynonadecanoylamino)butanoyl]amino]butanoyl]-[Glu14,Arg17,Pro21,Pro27,Pro34,His35]-h-amylin (peptide)
peptide: K([γGlu-γGlu-C20 diacid])CNTATCATQRLAEFLRHSSPNFGAIPSSTNVGPHTY-NH2
modifications: disulfide 2-7 (inferred)
notes: as for B1
B3: N^ε1-[(4S)-4-carboxy-4-[[(4S)-4-carboxy-4-(19-carboxynonadecanoylamino)butanoyl]amino]butanoyl]-[Glu14,Arg17,Pro21,Pro31,Pro34,Glu35]-h-amylin (peptide)
peptide: K([γGlu-γGlu-C20 diacid])CNTATCATQRLAEFLRHSSPNFGAILSSTPVGPETY-NH2
modifications: disulfide 2-7 (inferred)
notes: as for B1
B4: N^ε1-[(4S)-4-carboxy-4-[[(4S)-4-carboxy-4-(19-carboxynonadecanoylamino)butanoyl]amino]butanoyl]-[Glu14,Arg17,Pro21,Pro27,Pro34,Phe37]-h-amylin (peptide)
peptide: K([γGlu-γGlu-C20 diacid])CNTATCATQRLAEFLRHSSPNFGAIPSSTNVGPNTF-NH2
modifications: disulfide 2-7; N-terminus assumed
SMILES: CC[C@H](C)[C@H](NC(=O)[C@H](C)NC(=O)CNC(=O)[C@H](Cc1ccccc1)NC(=O)[C@H](CC(N)=O)NC(=O)[C@@H]1CCCN1C(=O)[C@H](CO)NC(=O)[C@H](CO)NC(=O)[C@H](Cc1c[nH]cn1)NC(=O)[C@H](CCCNC(=N)N)NC(=O)[C@H](CC(C)C)NC(=O)[C@H](Cc1ccccc1)NC(=O)[C@H](CCC(=O)O)NC(=O)[C@H](C)NC(=O)[C@H](CC(C)C)NC(=O)[C@H](CCCNC(=N)N)NC(=O)[C@H](CCC(N)=O)NC(=O)[C@@H](NC(=O)[C@H](C)NC(=O)[C@@H]1CSSC[C@H](NC(=O)[C@@H](N)CCCCNC(=O)CC[C@H](NC(=O)CC[C@H](NC(=O)CCCCCCCCCCCCCCCCCCC(=O)O)C(=O)O)C(=O)O)C(=O)N[C@@H](CC(N)=O)C(=O)N[C@@H]([C@@H](C)O)C(=O)N[C@@H](C)C(=O)N[C@@H]([C@@H](C)O)C(=O)N1)[C@@H](C)O)C(=O)N1CCC[C@H]1C(=O)N[C@@H](CO)C(=O)N[C@@H](CO)C(=O)N[C@H](C(=O)N[C@@H](CC(N)=O)C(=O)N[C@H](C(=O)NCC(=O)N1CCC[C@H]1C(=O)N[C@@H](CC(N)=O)C(=O)N[C@H](C(=O)N[C@@H](Cc1ccccc1)C(N)=O)[C@@H](C)O)C(C)C)[C@@H](C)O
notes: as for B1
B5: N^ε1-[(4S)-4-carboxy-4-[[(4S)-4-carboxy-4-(19-carboxynonadecanoylamino)butanoyl]amino]butanoyl]-[Glu14,Arg17,Pro21,Pro27,Pro34,Arg35]-h-amylin (peptide)
peptide: K([γGlu-γGlu-C20 diacid])CNTATCATQRLAEFLRHSSPNFGAIPSSTNVGPRTY-NH2
modifications: disulfide 2-7; N-terminus assumed
SMILES: CC[C@H](C)[C@H](NC(=O)[C@H](C)NC(=O)CNC(=O)[C@H](Cc1ccccc1)NC(=O)[C@H](CC(N)=O)NC(=O)[C@@H]1CCCN1C(=O)[C@H](CO)NC(=O)[C@H](CO)NC(=O)[C@H](Cc1c[nH]cn1)NC(=O)[C@H](CCCNC(=N)N)NC(=O)[C@H](CC(C)C)NC(=O)[C@H](Cc1ccccc1)NC(=O)[C@H](CCC(=O)O)NC(=O)[C@H](C)NC(=O)[C@H](CC(C)C)NC(=O)[C@H](CCCNC(=N)N)NC(=O)[C@H](CCC(N)=O)NC(=O)[C@@H](NC(=O)[C@H](C)NC(=O)[C@@H]1CSSC[C@H](NC(=O)[C@@H](N)CCCCNC(=O)CC[C@H](NC(=O)CC[C@H](NC(=O)CCCCCCCCCCCCCCCCCCC(=O)O)C(=O)O)C(=O)O)C(=O)N[C@@H](CC(N)=O)C(=O)N[C@@H]([C@@H](C)O)C(=O)N[C@@H](C)C(=O)N[C@@H]([C@@H](C)O)C(=O)N1)[C@@H](C)O)C(=O)N1CCC[C@H]1C(=O)N[C@@H](CO)C(=O)N[C@@H](CO)C(=O)N[C@H](C(=O)N[C@@H](CC(N)=O)C(=O)N[C@H](C(=O)NCC(=O)N1CCC[C@H]1C(=O)N[C@@H](CCCNC(=N)N)C(=O)N[C@H](C(=O)N[C@@H](Cc1ccc(O)cc1)C(N)=O)[C@@H](C)O)C(C)C)[C@@H](C)O
notes: modifications are with respect to human amylin; also called compound 110
B6: N^ε1-[(4S)-4-carboxy-4-[[(4S)-4-carboxy-4-(19-carboxynonadecanoylamino)butanoyl]amino]butanoyl]-[Glu14,Arg17,Pro23,Pro34,Glu35]-h-amylin (peptide)
peptide: K([γGlu-γGlu-C20 diacid])CNTATCATQRLAEFLRHSSNNPGAILSSTNVGPETY-NH2
modifications: disulfide 2-7; N-terminus assumed
SMILES: CC[C@H](C)[C@H](NC(=O)[C@H](C)NC(=O)CNC(=O)[C@@H]1CCCN1C(=O)[C@H](CC(N)=O)NC(=O)[C@H](CC(N)=O)NC(=O)[C@H](CO)NC(=O)[C@H](CO)NC(=O)[C@H](Cc1c[nH]cn1)NC(=O)[C@H](CCCNC(=N)N)NC(=O)[C@H](CC(C)C)NC(=O)[C@H](Cc1ccccc1)NC(=O)[C@H](CCC(=O)O)NC(=O)[C@H](C)NC(=O)[C@H](CC(C)C)NC(=O)[C@H](CCCNC(=N)N)NC(=O)[C@H](CCC(N)=O)NC(=O)[C@@H](NC(=O)[C@H](C)NC(=O)[C@@H]1CSSC[C@H](NC(=O)[C@@H](N)CCCCNC(=O)CC[C@H](NC(=O)CC[C@H](NC(=O)CCCCCCCCCCCCCCCCCCC(=O)O)C(=O)O)C(=O)O)C(=O)N[C@@H](CC(N)=O)C(=O)N[C@@H]([C@@H](C)O)C(=O)N[C@@H](C)C(=O)N[C@@H]([C@@H](C)O)C(=O)N1)[C@@H](C)O)C(=O)N[C@@H](CC(C)C)C(=O)N[C@@H](CO)C(=O)N[C@@H](CO)C(=O)N[C@H](C(=O)N[C@@H](CC(N)=O)C(=O)N[C@H](C(=O)NCC(=O)N1CCC[C@H]1C(=O)N[C@@H](CCC(=O)O)C(=O)N[C@H](C(=O)N[C@@H](Cc1ccc(O)cc1)C(N)=O)[C@@H](C)O)C(C)C)[C@@H](C)O
notes: as for B1

The target of the test is T1, human amylin receptor (Amylin 3(a) …). Briefly: SPA competition binding, displacement of 125I-rat amylin from membranes of BHK cells with human calcitonin receptor + RAMP-3 (Assay V). Put shortly:
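SPA beads with BHK Amylin 3(a)/CRE-luc cell membranes (35 ng/μL final) in 50 mM Hepes pH 7.4, 1 mM CaCl2, 5 mM MgCl₂, 0.1% OA, 0.02% Tween20.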
(In general: Displacement assays read how much labelled ligand stays bound in the presence of the test substance.)
For orientation: IC50 means the concentration that inhibits the measured activity by half. On to B1, for which the IC50 came out at 0.525 nM. On to B2, for which the IC50 is 0.377 nM. In the case of B3 it was 0.069 nM. To B4 belongs 0.152 nM. To B5 belongs 0.326 nM; to B6, 1.19 nM.
